Assay [1] deals with 26S proteasome from BALB/c mouse (mouse (endogenous in BALB/c brain)) (UniProt O35226).
Assay [2] deals with G-actin (UniProt P60709). The settings on record: cited from earlier work.
In assay [3] the target is F-actin (UniProt P60709). The settings on record: cited from earlier work.
For assay [4], the target named is CaM (UniProt P0DP23). The experiment in a line: SPR. The settings on record: cited from earlier work.

Chain of UniProt O35226 (O35226 whole entry, looked up): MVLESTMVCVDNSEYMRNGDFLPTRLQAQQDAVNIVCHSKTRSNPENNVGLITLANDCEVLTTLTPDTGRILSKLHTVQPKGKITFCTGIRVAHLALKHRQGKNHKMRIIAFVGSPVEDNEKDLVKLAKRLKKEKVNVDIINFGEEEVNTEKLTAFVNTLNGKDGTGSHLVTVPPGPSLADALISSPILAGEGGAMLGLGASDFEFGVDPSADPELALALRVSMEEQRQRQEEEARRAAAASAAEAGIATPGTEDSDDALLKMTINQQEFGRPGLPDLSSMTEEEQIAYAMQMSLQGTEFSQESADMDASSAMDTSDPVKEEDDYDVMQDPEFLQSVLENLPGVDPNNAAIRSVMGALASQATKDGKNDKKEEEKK

With “Histone H1.3 human, recombinant (from UniProt P16402 1-221) (natural protein)”, the theoretical KD estimated from the inhibition curve of 26S-mediated MBP hydrolysis, assuming that bound 26S proteasome cannot degrade MBP (blocks m1 with m2) in assay [1] is 1000 nM.
Turning to MBP (from UniProt P02686), the Kd in assay [2] is 66.6 nM; in assay [3], 65.3 nM.
Turning to MBP (from UniProt P04370), the Kd in assay [4] was 200 nM.
As for MBP (from UniProt P81558), the equilibrium dissociation constant (Kd) in assay [4] was 148 nM.

(Values after publication PMC4172982.)
